Read-outs that look alike come from different tables or passages of the source.
Columns and labels:
[1] = Zeta potential measurement; format: physicochemical; settings: solution alone, pH 7.4, 1 mg/mL, room temperature
Method: The zeta potential values of the PAU and PAUBSA conjugates were measured at room temperature by Metasizer Nano ZS instrument (Malvern Instrument). The solution concentrations for all samples were 1 mg/mL and their pH was adjusted to 7.4. The solutions were stabilized at room temperature for 20 minutes before measurement.

[2] = In vivo lysozyme release, lysozyme in blood serum (ELISA); parameters: species or system male SD rats
Method: (§1) In order to examine the in vivo release of lysozyme, a sample solution loaded with 250 μL of lysozyme was injected to male SD rats (three rats per group). At predetermined times, blood samples were collected from the caudal vein, centrifuged to obtain blood sera, and stored them at −21° C. until the next analysis. The concentration of the lysozyme in the blood sera was measured using a commercial lysozyme (LZM) ELISA kit (Cusabio, China).
as §1, with “tunes,” for “times,”

[3] = cited from earlier work
[4] = single subcutaneous injection of lysozyme-loaded sample

Substance: lysozyme: chicken egg white lysozyme, model protein loaded into the hydrogels; also injected as plain solution
- zeta potential [1]: 11.2 mV
- duration of lysozyme release until serum lysozyme reached the normal level [2, 4]: within nine days
- initial burst release of lysozyme in vivo [2, 4]: initial burst was obviously observed
- time to reach peak lysozyme level ([2]; single subcutaneous injection, 10 mg/mL lysozyme): within two days
- peak lysozyme level in blood ([2]; single subcutaneous injection, 10 mg/mL lysozyme in the preparation): about 447 ng/mL
- temperature up to which thermal stability is maintained ([3]; in the presence of an anionic modified polymer): up to 72 °C
- bioactivity of lysozyme released from PEG-based hydrogels and other polymeric devices ([3]; up to 28 days): about 95%
- bioactivity of lysozyme released from PEG-based hydrogels and other polymeric devices ([3]; up to 50 days): 100%

From US9782486B2, “Albumin conjugated temperature and pH-sensitive multi-block copolymer, a method of preparation thereof and drug delivery system using the same” (Research & Business Foundation Sungkyunkwan University, priority 2014, dated 2017)
